Laboratory results taken from patent US10358467B2, “Therapeutic targets for cancer progression” (The Regents of the University of California, priority 2015, dated 2019).

How the values were obtained:
Format in all cases: cell-based
[1] = test system: Gi heterotrimer (Gαi1-YFP, CFP-Gβ1, Gγ2); assay: FRET between Gαi1-YFP and CFP-Gβ1 (Gi activation) in living HeLa cells
Experimental: (§1) Förster Resonance Energy Transfer (FRET) experiments were performed using the classical ECFP- and EYFP-tagged proteins as donor and acceptor FRET-probe pairs, respectively. Previously validated and published FZD7-CFP construct was a generous gift from Carl-Philip Heisenberg (Witzel et al, 2006). Previously validated Gαi3-YFP and Gαi1-YFP (internally tagged Gαi subunits) and CFP-Gβ1 were generous gifts from Moritz Bunemann (Bunemann et al, 2003; Gibson & Gilman, 2006). Interaction of FZD7-CFP and Gαi3-YFP proteins was studied in HEK293T cells using a Leica inverted laser scanning confocal microscope. […] Loss of FRET upon Gi activation and heterotrimer dissociation was measured between Gαi1-YFP and CFP-Gβ1 proteins co-expressed in living HeLa cells using Olympus FV1000 inverted confocal laser scanning microscope equipped with a 60× 1.49 N.A oil immersed objective designed to minimize chromatic aberration and enhance resolution for 405-605 nm imaging as described previously (Midde et al, 2015). […] FRET efficiency was calculated on a pixel by pixel basis from ratiometric images obtained in individual channels (donor, acceptor and FRET) through a RiFRET plugin in Image J software (Roszik et al, 2009). […]

[2] = test system: FZD7R-Gαi3 complexes; assay: FRET between FZD7R-CFP and Gαi3-YFP in HEK293 cells; details: plasma membrane, within 5 min; starved cells 0.04±0.01
Experimental: as §1

[3] = test system: cAMP levels in HeLa cells; assay: Measurement of cAMP by radioimmunoassay in HeLa cells
Experimental: HeLa cells were transfected with DAPLE-WT or DAPLE-FA, serum starved (0.2% FBS, 16 h) and incubated with isobutylmethylxanthine (IBMX, 200 μM, 20 min) followed by Wnt5a stimulation (100 ng/ml, 20 min) and Forskolin (10 uM, 10 min). To stop the reaction, cell medium was replaced with 150 μl of ice-cold TCA 7.5% (w/v). cAMP content in TCA extracts was determined by radioimmunoassay (MA) and normalized. To the amount of protein [(determined using a dyebinding protein assay (Bio-Rad)] per sample as previously described (Ostrom et al, 2001).

B1: Wnt5a: recombinant Wnt5a purified from CHO conditioned media (protein, UniProt P41221 62-380, looked up)
Protein Wnt-5a: IIGAQPLCSQLAGLSQGQKKLCHLYQDHMQYIGEGAKTGIKECQYQFRHRRWNCSTVDNTSVFGRVMQIGSRETAFTYAVSAAGVVNAMSRACREGELSTCGCSRAARPKDLPRDWLWGGCGDNIDYGYRFAKEFVDARERERIHAKGSYESARILMNLHNNEAGRRTVYNLADVACKCHGVSGSCSLKTCWLQLADFRKVGDALKEKYDSAAAMRLNSRGKLVQVNSRFNSPTTQDLVYIDPSPDYCVRNESTGSLGTQGRLCNKTSEGMDGCELMCCGRGYDQFKTVQTERCHCKFHWCCYVKCKKCTEIVDQFVCK
[1]; DAPLE-depleted HeLa cells
  drop in FRET after Wnt5a stimulation: No significant drop in FRET
[1]; control HeLa cells, plasma membrane, within 5 min, 0.36±0.08 before stimulation
  FRET efficiency after Wnt5a stimulation: 0.17±0.06
[2]
  FRET efficiency after ligand stimulation: 0.25±0.06
[3]; HeLa cells expressing DAPLE-FA
  suppression of cAMP levels: no such suppression
[3]; HeLa cells expressing DAPLE-WT, Wnt5a 100 ng/ml 20 min
  suppression of cAMP levels: ~50%
